Numbering of substitutions follows the chain as printed. Names may count otherwise.
Experiments:
[1] = target: T1, human alpha-synuclein protein, monomeric (human, UniProt P37840 1-140); test: SPR (Biacore), full-cycle kinetics: IgG captured on anti-human Fc CM5 chip, alpha-synuclein monomer injected, 1:1 Langmuir fit
[2] = target: human alpha-synuclein protein (full-length; monomer/oligomer form not specified at the place) (human, UniProt P37840 1-140); test: SPR (Biacore T200), protein captured by anti-human-Fc on a CM5 chip, recombinant alpha-synuclein injected (Table 14)
[3] = target: T1, human alpha-synuclein protein, monomeric; test: SPR (Biacore)
[4] = target: T1, human alpha-synuclein protein, monomeric; test: SPR (Biacore), single-cycle kinetics, alpha-synuclein monomer

B1: Clone 2F10 (antibody, human IgG1, V domains shown)
VH: EVKLQESGPGLVKPSQSLSLTCSVTGYSITSGYYWNWIRQFPGNKLEWLGYISDDGRNNYNPSLKNRISITRDTSKNQLFLKLNSVTTEDTATYYCVRGDYGPWGQGTTVTVSS
VL: DVVMTQTPLTLSVTIGQPAFISCKSNQSLLDYDGETYLNWLFLRPGQSPKRLIYLVSKQDSGVPDRFTGIGSGTDFTLKINRVEAEDLGIYYCWQGTHFPQTFGGGTKLELK
notes: Biacore: mouse variable regions with human IgG1 and kappa constant regions; A mouse IgG version was also used elsewhere
[1]
  Kd: 6.7 nM
  koff: 0.00067 s⁻¹
  kon: 100000 M⁻¹ s⁻¹

B2: Clone 2D02 (antibody, V domains shown)
VH: EVKLQESGPGLVKPSQSLSLTCSVTGYSITSGYYWNWIRQFPGNKLEWLGFISSDGNSDYNPSLKNRISVTRDTSKNQFFLQLNSVTTEDTATYYCLRGDVDWGQGTTLTVSS
VL: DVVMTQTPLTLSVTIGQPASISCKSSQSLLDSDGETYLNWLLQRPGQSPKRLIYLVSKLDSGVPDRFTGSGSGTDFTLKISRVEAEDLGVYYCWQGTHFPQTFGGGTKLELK
notes: Biacore: mouse variable regions with human IgG1 and kappa constant regions
[1]
  Kd: 6.38 nM
  koff: 0.0003 s⁻¹
  kon: 47000 M⁻¹ s⁻¹

B3: Clone 2F09 (antibody, V domains shown)
VH: EVHVKQSGPELVEPGASVKISCKTSGYTFASYAISWVKQRTGQGLEWIGEIYPGSGDTYYDEKFKGKATLTADKSSSTAYMELRSLTSEDSAVYFCASDYDAYWGQGTLVTVSA
VL: DIVLTQTPLSLPVSLGDQASISCRSSQSLVHRNGNTYLHWYLQKPGQSPKLLIYRISNRFSGVPDRFSGSGSGTDFTLKISRVEAEDLGVYFCSQSTHVPLTFGAGTKLEIK
notes: Mouse variable regions with human IgG1 and kappa constant regions
[1]
  Kd: 1.63 nM
  koff: 0.0015 s⁻¹
  kon: 920000 M⁻¹ s⁻¹

B4: 1F4/35.21.17.2 (bispecific antibody, human IgG1, kappa)
heavy 1: EVQLVESGGGLVQPKGSLKLSCAASGFSFNTYAMNWVRQAPGKGLEWVARIRTKSNNYATYYADSVKDRFTISRDDSESKFHLQMNNLKTEDTAIYYCVRQGIDFYAMDYWGQGTSVTVSSASTKGPSVFPLAPSSKSTSGGTAALGCLVKDYFPEPVTVSWNSGALTSGVHTFPAVLQSSGLYSLSSVVTVPSSSLGTQTYICNVNHKPSNTKVDKKVEPKSCDKTHTCPPCPAPELLGGPSVFLFPPKPKDTLMISRTPEVTCVVVDVSHEDPEVKFNWYVDGVEVHNAKTKPREEQYNSTYRVVSVLTVLHQDWLNGKEYKCKVSNKALPAPIEKTISKAKGQPREPQVYTLPPSRDELTKNQVSLWCLVKGFYPSDIAVLWESYGTEWASYKTTPPVLDSDGSFFLYSKLTVTKEEWQQGFVFSCSVMHEALHNHYTQKSLSLSPGK
heavy 2: not shown
light: DVLMTQSPLSLSVSLGDQASISCRSSRDIVHSNGNTYLEWYLQKPGQSPKLLIYKVSNRFSGVPDRFSGSGSGTDFTLKISRVEAEDLGVYYCFQGTLIPLTFGAGTKLELKRTVAAPSVFIFPPSDEQLKSGTASVVCLLNNFYPREAKVQWKVDNALQSGNSQESVTEQDSKDSTYSLSSTLTLSKADYEKHKVYACEVTHQGLSSPVTKSFNRGEC
[2]
  binding result: binds

B5: Clone 1F06 (antibody, V domains shown)
VH: EVKLVESGGGLVKPGGSLKLSCAASGFIFSDYGMHWVRQAPEKGLEWIAFISSGNNTVYYADTVKGRFTISRDSAKKTLFLQMTSLRSEDTAMYYCVRHSNFCDYWGQGTSVTVSS
VL: DVQMTQTPLSLPVSLGDQASISCRSSQSIVHSNGNTYLEWYLQKPGQSPKLLIYKVSNRFSGVPDRFSGSGSGTDFTLKISRVEAEDLGVYYCFQGSHVPPTFGAGTKLELK
notes: also called antibody 1F06
[3]
  binding result: binds

B6: Clone 1F06 C99M (antibody, human IgG1, V domains shown)
VH: B5 VH with C103M
VL: B5 VL
notes: Human IgG1/kappa chimeric format like 1F06; C99 (Kabat, CDR-H3) is replaced by Met; also called 1F06 C99M variant; C99M variant of 1F06
[4]
  binding result: binds

B7: 2F09/35.21.17.2 (bispecific antibody, human IgG1, kappa)
heavy 1: EVHVKQSGPELVEPGASVKISCKTSGYTFASYAISWVKQRTGQGLEWIGEIYPGSGDTYYDEKFKGKATLTADKSSSTAYMELRSLTSEDSAVYFCASDYDAYWGQGTLVTVSAASTKGPSVFPLAPSSKSTSGGTAALGCLVKDYFPEPVTVSWNSGALTSGVHTFPAVLQSSGLYSLSSVVTVPSSSLGTQTYICNVNHKPSNTKVDKKVEPKSCDKTHTCPPCPAPELLGGPSVFLFPPKPKDTLMISRTPEVTCVVVDVSHEDPEVKFNWYVDGVEVHNAKTKPREEQYNSTYRVVSVLTVLHQDWLNGKEYKCKVSNKALPAPIEKTISKAKGQPREPQVYTLPPSRDELTKNQVSLWCLVKGFYPSDIAVLWESYGTEWASYKTTPPVLDSDGSFFLYSKLTVTKEEWQQGFVFSCSVMHEALHNHYTQKSLSLSPGK
heavy 2: not shown
light: DIVLTQTPLSLPVSLGDQASISCRSSQSLVHRNGNTYLHWYLQKPGQSPKLLIYRISNRFSGVPDRFSGSGSGTDFTLKISRVEAEDLGVYFCSQSTHVPLTFGAGTKLEIKRTVAAPSVFIFPPSDEQLKSGTASVVCLLNNFYPREAKVQWKVDNALQSGNSQESVTEQDSKDSTYSLSSTLTLSKADYEKHKVYACEVTHQGLSSPVTKSFNRGEC
notes: Knob:hole:light chain were co-transfected 1:1:2
[2]
  binding result: binds

B8: Clone 3C02 (antibody, human IgG1, V domains shown)
VH: EVKLLESGGGLVQPGGSLKLSCAASGFTFSDYGMHWVRQAPEKGLEWIAYISRGSSAIYYADAVKGRFTISRDNAKNTLFLQMTSLRSEDTAMYYCRSPLRYFDVWGTGTSVTVSS
VL: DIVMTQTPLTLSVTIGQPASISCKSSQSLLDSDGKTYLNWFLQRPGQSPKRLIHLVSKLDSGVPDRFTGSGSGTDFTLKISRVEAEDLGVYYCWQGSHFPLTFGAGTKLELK
notes: as for B3
[1]
  Kd: 29.3 nM
  koff: 0.0012 s⁻¹
  kon: 41000 M⁻¹ s⁻¹

From patent WO2018237338A1 (dated 2018)
